Test results as given in the supplement of paper PMC9233669.
This sample holds only a part of the variants without activity.

Tests used:
[1] = tested on: biotinyl-Phe-oxazolone; assay: self-aminoacylation, catalytic enhancement (BFO) (fold over background); higher = more active; k-Seq, kA / k0A0; sequences stand for … in GGGAAUGGAUCCACAUCUACGAAUUC…UUCACUGCAGACUUGACGAAGCUG
Procedure, shortened: (§1)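 Mutagenized RNA pools with a 21-nt variable region (0.43 μM) reacted with each biotinyl-aminoacyl-oxazolone at 2–1250 μM. Reactions ran in 50 μL HEPES/NaCl/KCl/MgCl2/CaCl2 buffer with 5% acetonitrile, pH 6.9–7.0, for 90 minutes at room temperature. Streptavidin-captured RNA was quantified by triplicate qPCR and Illumina sequencing, and per-sequence fraction reacted was fit to a pseudo-first-order model with 1000 bootstraps. Catalytic enhancement is median kA divided by the uncatalyzed rate, the low-activity peak of a bimodal Gaussian fit.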

[2] = tested on: biotinyl-Leu-oxazolone; assay: self-aminoacylation, catalytic enhancement (BLO) (fold over background); higher = more active; k-Seq, kA / k0A0; sequences stand for … in GGGAAUGGAUCCACAUCUACGAAUUC…UUCACUGCAGACUUGACGAAGCUG
Procedure, shortened: as §1

[3] = tested on: biotinyl-Ile-oxazolone; assay: self-aminoacylation, catalytic enhancement (BIO) (fold over background); higher = more active; k-Seq, kA / k0A0; sequences stand for … in GGGAAUGGAUCCACAUCUACGAAUUC…UUCACUGCAGACUUGACGAAGCUG
Procedure, shortened: as §1

[4] = tested on: biotinyl-Met-oxazolone; assay: self-aminoacylation, catalytic enhancement (BMO) (fold over background); higher = more active; k-Seq, kA / k0A0; sequences stand for … in GGGAAUGGAUCCACAUCUACGAAUUC…UUCACUGCAGACUUGACGAAGCUG
Procedure, shortened: as §1

[5] = tested on: biotinyl-Trp-oxazolone; assay: self-aminoacylation, catalytic enhancement (BWO) (fold over background); higher = more active; k-Seq, kA / k0A0; sequences stand for … in GGGAAUGGAUCCACAUCUACGAAUUC…UUCACUGCAGACUUGACGAAGCUG
Procedure, shortened: as §1

[6] = tested on: biotinyl-Val-oxazolone; assay: self-aminoacylation, catalytic enhancement (BVO) (fold over background); higher = more active; k-Seq, kA / k0A0; sequences stand for … in GGGAAUGGAUCCACAUCUACGAAUUC…UUCACUGCAGACUUGACGAAGCUG
Procedure, shortened: as §1

| Sequence | self-aminoacylation [1] | self-aminoacylation [2] | self-aminoacylation [3] | self-aminoacylation [4] | self-aminoacylation [5] | self-aminoacylation [6] |
| --- | --- | --- | --- | --- | --- | --- |
| CUACUUCAAAAAGUCGGUCUG [Fam1A.1 aminoacylation ribozyme variant] | 0.598 | 0.779 | 0.876 | 0.856 | 0.579 | 0.773 |
| CUACUUCAAAAUAUCGGUCUG [Fam1A.1 aminoacylation ribozyme variant] | 1.01 | 0.798 | 1.01 | 0.936 | 0.973 | 0.911 |
| CUACUUCAAACAAACGGCCUG [Fam1A.1 aminoacylation ribozyme variant] | 0.719 | 1.18 | 1.38 | 1.01 | 0.967 | 1.13 |
| CUACUUCAAACAAACGGUCUA [Fam1A.1 aminoacylation ribozyme variant] | 0.773 | 0.696 | 0.751 | 0.665 | 0.537 | 0.742 |
| CUACUUCAAACAAACGGUCUG [Fam1A.1 aminoacylation ribozyme variant] | 0.894 | 0.666 | 0.77 | 0.664 | 0.615 | 0.812 |
| CUACUUCAAACAACCAGUCUG [Fam1A.1 aminoacylation ribozyme variant] | 0.953 | 0.668 | 1.02 | 0.899 | 0.573 | 0.797 |
| CUACUUCAAACAACCGCUCUG [Fam1A.1 aminoacylation ribozyme variant] | 0.457 | 0.547 | 0.776 | 0.774 | 0.619 | 0.769 |
| CUACUUCAAACAACCGGCCUG [Fam1A.1 aminoacylation ribozyme variant] | 2.27 | 1.51 | 1.8 | 2.4 | 1.49 | 1.86 |
| CUACUUCAAACAACCGGUCUG [Fam1A.1 aminoacylation ribozyme variant] | 1.07 | 0.791 | 0.874 | 0.729 | 0.844 | 0.845 |
| CUACUUCAAACAAGCGGACUG [Fam1A.1 aminoacylation ribozyme variant] | 0.818 | 0.631 | 0.91 | 0.81 | 0.644 | 0.896 |
| CUACUUCAAACAAGCGGCCUG [Fam1A.1 aminoacylation ribozyme variant] | 0.592 | 2.08 | 2.41 | 1.32 | 1.68 | 1.83 |
| CUACUUCAAACAAGCGUUCUG [Fam1A.1 aminoacylation ribozyme variant] | 0.391 | 0.517 | 0.481 | 0.499 | 0.503 | 0.499 |
| CUACUUCAAACAAGCUGUCUG [Fam1A.1 aminoacylation ribozyme variant] | 0.642 | 0.795 | 0.733 | 0.7 | 0.356 | 0.734 |
| CUACUUCAAACAAUAGGUGUG [Fam1A.1 aminoacylation ribozyme variant] | 1.38 | 1.25 | 1.07 | 1.22 | 0.781 | 0.975 |
| CUACUUCAAACAAUCAGGCUG [Fam1A.1 aminoacylation ribozyme variant] | 2.7 | 0.78 | 0.911 | 0.549 | 1.33 | 0.723 |
| CUACUUCAAACAAUCAGUAUG [Fam1A.1 aminoacylation ribozyme variant] | 6.02 | 0.777 | 0.847 | 0.891 | 2.46 | 0.819 |
| CUACUUCAAACAAUCAGUCUC [Fam1A.1 aminoacylation ribozyme variant] | 25.9 | 0.872 | 0.833 | 0.723 | 8 | 0.904 |
| CUACUUCAAACAAUCAGUCUU [Fam1A.1 aminoacylation ribozyme variant] | 13.2 | 0.935 | 0.938 | 0.854 | 4.96 | 0.942 |
| CUACUUCAAACAAUCCGUCAG [Fam1A.1 aminoacylation ribozyme variant] | 0.797 | 0.613 | 0.951 | 0.684 | 0.643 | 0.934 |
| CUACUUCAAACAAUCCGUCCG [Fam1A.1 aminoacylation ribozyme variant] | 0.694 | 0.927 | 0.825 | 0.708 | 0.751 | 0.903 |
| CUACUUCAAACAAUCCGUCUC [Fam1A.1 aminoacylation ribozyme variant] | 1.18 | 0.44 | 0.634 | 0.471 | 0.858 | 0.751 |
| CUACUUCAAACAAUCCGUGUG [Fam1A.1 aminoacylation ribozyme variant] | 7.45 | 3.84 | 1.99 | 2.86 | 2.52 | 1.88 |
| CUACUUCAAACAAUCGCUCUA [Fam1A.1 aminoacylation ribozyme variant] | 0.778 | 0.642 | 0.862 | 1.05 | 0.736 | 0.948 |
| CUACUUCAAACAAUCGCUCUC [Fam1A.1 aminoacylation ribozyme variant] | 2.18 | 0.515 | 0.621 | 0.384 | 1.2 | 1.02 |
| CUACUUCAAACAAUCGCUCUU [Fam1A.1 aminoacylation ribozyme variant] | 0.851 | 0.539 | 0.938 | 0.772 | 0.632 | 0.856 |
| CUACUUCAAACAAUCGGCCUG [Fam1A.1 aminoacylation ribozyme variant] | 85.3 | 2.86 | 1.69 | 1.87 | 48.1 | 1.78 |

| Sequence | self-aminoacylation [1] | self-aminoacylation [2] | self-aminoacylation [3] | self-aminoacylation [4] | self-aminoacylation [5] | self-aminoacylation [6] |
| --- | --- | --- | --- | --- | --- | --- |
| CUACUUCAAACAAUCGGGAUG [Fam1A.1 aminoacylation ribozyme variant] | 5.85 | 1.19 | 0.904 | 0.844 | 4.46 | 1.02 |
| CUACUUCAAACAAUCGGGCCG [Fam1A.1 aminoacylation ribozyme variant] | 1.76 | 1.32 | 1.53 | 1.19 | 1.22 | 0.974 |
| CUACUUCAAACAAUCGGGCUC [Fam1A.1 aminoacylation ribozyme variant] | 5.16 | 0.971 | 1.01 | 1.08 | 2.48 | 1.17 |
| CUACUUCAAACAAUCGGGCUU [Fam1A.1 aminoacylation ribozyme variant] | 1.14 | 0.955 | 1.55 | 1.12 | 1.3 | 1.32 |
| CUACUUCAAACAAUCGGGGUG [Fam1A.1 aminoacylation ribozyme variant] | 2.9 | 4.32 | 3.04 | 3.77 | 3.36 | 2.35 |
| CUACUUCAAACAAUCGGUCAA [Fam1A.1 aminoacylation ribozyme variant] | 6.72 | 0.712 | 0.846 | 0.695 | 2.24 | 0.996 |
| CUACUUCAAACAAUCGGUCCA [Fam1A.1 aminoacylation ribozyme variant] | 1.79 | 0.633 | 0.753 | 0.654 | 0.907 | 0.757 |
| CUACUUCAAACAAUCGGUGAG [Fam1A.1 aminoacylation ribozyme variant] | 1.5 | 1.05 | 0.901 | 1.19 | 0.907 | 1.03 |
| CUACUUCAAACAAUCGUACUG [Fam1A.1 aminoacylation ribozyme variant] | 1.35 | 0.389 | 0.519 | 0.419 | 0.573 | 0.533 |
| CUACUUCAAACAAUCGUCCUG [Fam1A.1 aminoacylation ribozyme variant] | 0.798 | 0.394 | 0.562 | 0.407 | 0.491 | 0.791 |
| CUACUUCAAACAAUCGUUCAG [Fam1A.1 aminoacylation ribozyme variant] | 0.81 | 0.497 | 0.658 | 0.566 | 0.523 | 0.769 |
| CUACUUCAAACAAUCUGCCUG [Fam1A.1 aminoacylation ribozyme variant] | 1.33 | 0.957 | 0.913 | 1.04 | 0.605 | 0.751 |
| CUACUUCAAACAAUCUUUCUG [Fam1A.1 aminoacylation ribozyme variant] | 5.42 | 0.658 | 0.747 | 0.771 | 2.33 | 0.898 |
| CUACUUCAAACAAUGGGGCUG [Fam1A.1 aminoacylation ribozyme variant] | 0.625 | 0.707 | 1.12 | 0.841 | 0.497 | 1.1 |
| CUACUUCAAACAAUUAGUCUG [Fam1A.1 aminoacylation ribozyme variant] | 1.04 | 0.712 | 0.891 | 0.662 | 0.684 | 0.901 |
| CUACUUCAAACAAUUGGCCUG [Fam1A.1 aminoacylation ribozyme variant] | 2.28 | 1.34 | 1.57 | 1.11 | 2.03 | 1.33 |
| CUACUUCAAACACUCGGACUG [Fam1A.1 aminoacylation ribozyme variant] | 0.435 | 0.89 | 1.11 | 1.01 | 1.32 | 1.2 |
| CUACUUCAAACACUCGGUCAG [Fam1A.1 aminoacylation ribozyme variant] | 0.496 | 0.833 | 0.907 | 0.878 | 0.721 | 0.958 |
| CUACUUCAAACACUCGGUGUG [Fam1A.1 aminoacylation ribozyme variant] | 4.18 | 1.5 | 1.81 | 1.72 | 1.63 | 1.59 |
| CUACUUCAAACACUCGUUCUG [Fam1A.1 aminoacylation ribozyme variant] | 0.429 | 0.492 | 0.595 | 0.499 | 0.444 | 0.635 |
| CUACUUCAAACACUCUGUCUG [Fam1A.1 aminoacylation ribozyme variant] | 0.709 | 0.547 | 0.797 | 0.608 | 0.678 | 0.724 |
| CUACUUCAAACAGUCGGUCUU [Fam1A.1 aminoacylation ribozyme variant] | 0.838 | 1.13 | 1.1 | 0.925 | 0.563 | 0.819 |
| CUACUUCAAACAUUCCGUCUG [Fam1A.1 aminoacylation ribozyme variant] | 0.631 | 1.19 | 1.15 | 0.79 | 1.22 | 1.2 |
| CUACUUCAAACAUUCGAUCUG [Fam1A.1 aminoacylation ribozyme variant] | 0.62 | 0.561 | 0.645 | 0.593 | 0.44 | 0.731 |
| CUACUUCAAACAUUCGGUCUG [Fam1A.1 aminoacylation ribozyme variant] | 0.828 | 0.892 | 0.994 | 0.904 | 0.904 | 1.01 |
